In patent US20080044360A1 (COLLAGEN MEDICAL, published 2008):
Bridge positions count the residues as written; N and C are the ends. Square brackets hold non-standard residues; d marks the D form. Primed or numbered codes have the meaning given here. Ends that are not written are not given here. Glu‑DTPA‑Gd = N-terminal Glu-DTPA-Gd chelate (gadolinium DTPA complex on glutamic acid); Glu‑DTPA‑Gd″ = N-terminal chelate: Glu-DTPA-Gd (glutamic acid–DTPA gadolinium chelate); Glu‑DTPA‑Gd(3) = N-terminal gadolinium chelate Glu-DTPA-Gd; PEG(2O) = not defined here

Columns and labels:
[1] = biological target: T1, rat collagen, acid soluble, type I, rat tail (Upstate 08-115) (rat, UniProt P02454 152-1207; P02466 86-1125); assay: dried collagen assay
T1 construct: tissue extract, gelled and dried in wells; also called dried rat collagen
T1 sequence (P02454 152-1207, chain 1 of 2): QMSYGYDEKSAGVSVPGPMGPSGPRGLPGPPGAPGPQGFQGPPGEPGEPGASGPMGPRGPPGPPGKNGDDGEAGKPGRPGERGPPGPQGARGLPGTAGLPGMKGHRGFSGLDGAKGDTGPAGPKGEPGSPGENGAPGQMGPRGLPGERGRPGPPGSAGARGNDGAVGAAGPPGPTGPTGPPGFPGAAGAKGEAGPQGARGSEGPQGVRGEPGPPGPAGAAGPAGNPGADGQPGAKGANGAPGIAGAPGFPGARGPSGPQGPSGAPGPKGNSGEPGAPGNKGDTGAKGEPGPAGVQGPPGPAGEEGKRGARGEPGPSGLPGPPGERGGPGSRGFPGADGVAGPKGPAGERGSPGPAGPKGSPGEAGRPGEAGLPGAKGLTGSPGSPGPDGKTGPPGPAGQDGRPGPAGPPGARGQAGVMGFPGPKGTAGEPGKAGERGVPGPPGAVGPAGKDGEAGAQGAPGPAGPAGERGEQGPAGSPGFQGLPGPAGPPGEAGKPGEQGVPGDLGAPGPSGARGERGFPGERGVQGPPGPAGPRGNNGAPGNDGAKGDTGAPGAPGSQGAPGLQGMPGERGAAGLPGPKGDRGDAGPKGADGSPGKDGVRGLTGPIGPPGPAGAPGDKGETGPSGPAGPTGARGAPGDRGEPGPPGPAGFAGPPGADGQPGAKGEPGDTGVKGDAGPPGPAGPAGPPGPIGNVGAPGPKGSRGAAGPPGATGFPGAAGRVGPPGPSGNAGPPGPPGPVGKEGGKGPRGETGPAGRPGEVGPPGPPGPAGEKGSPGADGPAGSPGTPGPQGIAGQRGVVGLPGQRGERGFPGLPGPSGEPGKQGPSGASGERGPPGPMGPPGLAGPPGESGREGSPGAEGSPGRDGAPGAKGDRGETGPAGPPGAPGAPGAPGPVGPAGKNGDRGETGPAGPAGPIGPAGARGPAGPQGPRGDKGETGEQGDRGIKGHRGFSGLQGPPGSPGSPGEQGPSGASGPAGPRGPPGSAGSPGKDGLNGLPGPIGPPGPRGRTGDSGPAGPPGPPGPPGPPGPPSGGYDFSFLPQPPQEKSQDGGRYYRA
T1 sequence (P02466 86-1125, chain 2 of 2): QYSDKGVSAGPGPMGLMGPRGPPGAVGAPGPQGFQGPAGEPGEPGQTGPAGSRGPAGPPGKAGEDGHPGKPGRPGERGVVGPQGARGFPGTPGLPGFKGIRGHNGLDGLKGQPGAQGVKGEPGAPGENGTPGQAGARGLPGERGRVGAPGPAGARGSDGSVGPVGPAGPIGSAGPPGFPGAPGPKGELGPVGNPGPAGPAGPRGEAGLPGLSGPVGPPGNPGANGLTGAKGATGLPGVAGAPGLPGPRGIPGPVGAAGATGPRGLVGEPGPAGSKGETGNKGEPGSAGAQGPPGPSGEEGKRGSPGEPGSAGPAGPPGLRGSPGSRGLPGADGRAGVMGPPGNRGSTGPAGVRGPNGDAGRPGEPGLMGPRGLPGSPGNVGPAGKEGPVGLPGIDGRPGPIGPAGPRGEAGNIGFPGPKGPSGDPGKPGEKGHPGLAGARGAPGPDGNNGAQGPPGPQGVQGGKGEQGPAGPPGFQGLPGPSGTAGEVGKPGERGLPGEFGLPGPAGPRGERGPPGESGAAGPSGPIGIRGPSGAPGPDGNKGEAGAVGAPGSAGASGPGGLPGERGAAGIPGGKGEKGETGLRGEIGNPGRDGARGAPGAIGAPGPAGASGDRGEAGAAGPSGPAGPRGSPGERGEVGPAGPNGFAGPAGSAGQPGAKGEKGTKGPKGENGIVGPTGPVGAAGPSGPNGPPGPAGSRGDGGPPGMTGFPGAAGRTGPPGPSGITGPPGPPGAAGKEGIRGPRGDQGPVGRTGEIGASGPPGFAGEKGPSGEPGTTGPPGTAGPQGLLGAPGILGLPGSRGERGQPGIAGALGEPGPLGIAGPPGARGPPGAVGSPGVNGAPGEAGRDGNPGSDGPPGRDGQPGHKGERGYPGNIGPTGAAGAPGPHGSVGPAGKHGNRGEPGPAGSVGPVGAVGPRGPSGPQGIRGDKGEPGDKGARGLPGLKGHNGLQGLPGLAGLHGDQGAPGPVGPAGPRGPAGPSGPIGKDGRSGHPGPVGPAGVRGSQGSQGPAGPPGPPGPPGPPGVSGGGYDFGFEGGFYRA
Protocol: (§1) An additional 90 μL is reserved in a HPLC glass vial as a measure of the total concentration.

[2] = biological target: T2, human collagen type I, acid soluble, extracted from placenta (Sigma C7774) (human, UniProt P02452 162-1218; P08123 80-1119); assay: dried collagen assay
T2 construct: tissue extract, gelled and dried in wells; also called dried human collagen; h-Collagen
T2 sequence (P02452 162-1218 limits assumed, chain 1 of 2): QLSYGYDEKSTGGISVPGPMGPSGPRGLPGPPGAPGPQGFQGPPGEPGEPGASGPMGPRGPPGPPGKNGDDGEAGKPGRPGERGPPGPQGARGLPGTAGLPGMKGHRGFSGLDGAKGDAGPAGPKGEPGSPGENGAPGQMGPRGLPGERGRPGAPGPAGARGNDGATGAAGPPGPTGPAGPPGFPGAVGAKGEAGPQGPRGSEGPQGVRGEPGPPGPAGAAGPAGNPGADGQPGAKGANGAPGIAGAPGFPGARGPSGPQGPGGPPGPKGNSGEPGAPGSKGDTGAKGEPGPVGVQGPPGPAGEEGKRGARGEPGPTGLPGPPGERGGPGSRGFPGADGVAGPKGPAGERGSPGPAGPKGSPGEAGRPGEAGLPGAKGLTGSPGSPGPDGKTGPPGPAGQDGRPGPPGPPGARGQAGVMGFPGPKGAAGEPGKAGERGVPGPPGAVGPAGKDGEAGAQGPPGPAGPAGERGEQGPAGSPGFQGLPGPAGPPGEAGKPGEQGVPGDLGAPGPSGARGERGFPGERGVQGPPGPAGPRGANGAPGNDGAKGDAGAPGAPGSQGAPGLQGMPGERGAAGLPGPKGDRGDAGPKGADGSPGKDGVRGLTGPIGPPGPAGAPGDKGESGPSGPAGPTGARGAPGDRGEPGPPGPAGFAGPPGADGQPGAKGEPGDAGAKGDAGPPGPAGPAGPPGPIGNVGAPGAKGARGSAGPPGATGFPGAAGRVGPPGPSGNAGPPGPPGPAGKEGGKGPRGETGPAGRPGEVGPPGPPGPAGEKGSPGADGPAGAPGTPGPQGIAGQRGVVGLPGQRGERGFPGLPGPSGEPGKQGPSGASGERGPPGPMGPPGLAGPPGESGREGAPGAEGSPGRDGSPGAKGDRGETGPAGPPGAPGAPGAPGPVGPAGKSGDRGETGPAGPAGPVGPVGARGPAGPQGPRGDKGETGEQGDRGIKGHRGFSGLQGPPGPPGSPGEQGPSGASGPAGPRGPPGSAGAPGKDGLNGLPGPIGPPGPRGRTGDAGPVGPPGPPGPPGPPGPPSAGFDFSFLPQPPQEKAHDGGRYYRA
T2 sequence (P08123 80-1119 limits assumed, chain 2 of 2): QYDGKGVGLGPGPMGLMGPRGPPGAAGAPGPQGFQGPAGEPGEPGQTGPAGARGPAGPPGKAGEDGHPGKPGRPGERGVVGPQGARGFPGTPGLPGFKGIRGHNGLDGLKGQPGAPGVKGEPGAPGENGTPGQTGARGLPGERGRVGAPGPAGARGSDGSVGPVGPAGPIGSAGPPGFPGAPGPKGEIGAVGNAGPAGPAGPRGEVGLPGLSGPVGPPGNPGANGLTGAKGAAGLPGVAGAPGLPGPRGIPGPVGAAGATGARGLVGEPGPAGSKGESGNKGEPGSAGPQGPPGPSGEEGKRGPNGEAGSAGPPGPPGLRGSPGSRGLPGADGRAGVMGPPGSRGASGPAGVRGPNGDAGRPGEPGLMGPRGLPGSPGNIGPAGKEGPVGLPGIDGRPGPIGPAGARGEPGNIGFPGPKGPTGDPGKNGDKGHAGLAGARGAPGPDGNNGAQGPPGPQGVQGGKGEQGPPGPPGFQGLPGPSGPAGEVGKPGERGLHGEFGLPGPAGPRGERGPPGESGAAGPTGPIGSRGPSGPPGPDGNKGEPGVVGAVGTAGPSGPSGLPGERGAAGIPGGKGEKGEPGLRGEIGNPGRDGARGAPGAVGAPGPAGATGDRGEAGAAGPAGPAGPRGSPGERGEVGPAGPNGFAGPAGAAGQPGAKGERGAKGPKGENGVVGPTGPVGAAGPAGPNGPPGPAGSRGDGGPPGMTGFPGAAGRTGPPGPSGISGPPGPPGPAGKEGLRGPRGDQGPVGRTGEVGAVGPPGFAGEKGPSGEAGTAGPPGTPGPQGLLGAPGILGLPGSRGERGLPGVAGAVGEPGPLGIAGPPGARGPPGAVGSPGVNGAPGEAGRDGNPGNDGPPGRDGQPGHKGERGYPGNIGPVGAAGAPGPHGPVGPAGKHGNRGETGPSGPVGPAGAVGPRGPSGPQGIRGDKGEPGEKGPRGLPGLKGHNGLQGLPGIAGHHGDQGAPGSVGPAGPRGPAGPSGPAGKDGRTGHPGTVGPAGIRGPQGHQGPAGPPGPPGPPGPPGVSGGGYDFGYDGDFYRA
Protocol: as §1

[3] = biological target: T2, human collagen type I, acid soluble, …; assay: % binding to collagen I
[4] = biological target: T1, rat collagen, acid soluble, type I, rat …; assay: % binding to collagen I

% bound [1] [%]	% bound [2] [%]	% bound [3] [%]	% bound [4] [%]	Binder
14	18			YHACYQAGCWI[dW] (disulfide 4-9 (inferred); not fully specified (C-terminus); printed as YHACYQAGCWIw, cyclic, disulfide) [SEQ ID NO 162]
		28		{Glu‑DTPA‑Gd″-PEG(2O)}-GQWTCSGDEYTWHCNY[dE]-NH2 (disulfide 5-14 (inferred); reading uncertain, linker -PEG(2O)-G- on the N-terminus) [Compound ID 1026]
		36	38	{Glu‑DTPA‑Gd}-GQWHCTTRFPHHYCLYG (disulfide 5-14 (inferred); not fully specified (C-terminus), N-terminal G linker) [Compound ID 1022]
		70	55	{Glu‑DTPA‑Gd(3)}-PPQWHCTTRFPHHYCLYG-NH2 (disulfide 6-15 (inferred), N-terminal P-P linker) [Compound ID 1024]
		48	13	{Glu‑DTPA‑Gd}-GQWTCSGDEYTWHCNYE (disulfide 5-14 (inferred); not fully specified (C-terminus), N-terminal G linker) [Compound ID 1021]
		60	34	{Glu‑DTPA‑Gd}-WWTCHMTWSGQWDSCKWH-NH2 (disulfide 4-15 (inferred)) [Compound ID 1020]
12	20			YHACYQAGC[dW]IW (disulfide 4-9 (inferred); not fully specified (C-terminus); printed as YHACYQAGCwIW, cyclic, disulfide) [SEQ ID NO 160]
		14	12	{Glu‑DTPA‑Gd″}-GGDWTCVGDHKTWKCNFH-NH2 (disulfide 6-15 (inferred), N-terminal G-G linker) [Compound ID 1023]
		16	9	WWGCRQGTGEHWSHCMWF (disulfide 4-15 (inferred); not fully specified (N-terminus, C-terminus); also: Gd chelated by DTPA at both ends) [SEQ ID NO 195]
10	8			YHACYQAGCW[dI]W (disulfide 4-9 (inferred); not fully specified (C-terminus); printed as YHACYQAGCWiW, cyclic, disulfide) [SEQ ID NO 161]
66	56			YHACYQ[dA]GCWIW (disulfide 4-9 (inferred); not fully specified (C-terminus); printed as YHACYQaGCWIW, cyclic, disulfide; also called YHACYQaGCWIW) [SEQ ID NO 158]
		60	34	WWTCHMTWSGQWDSCKWH-NH2 (disulfide 4-15 (inferred); not fully specified (N-terminus); also: Gd chelated by DTPA) [SEQ ID NO 196]
